Usually Kd stands for the concentration at which binding is half-saturated.

Assay [1] addresses T1, cynomolgus monkey FcγRIIa3 extracellular domain, His-tagged (cynomolgus monkey).
T1 construct: also called cyno FcγRIIa3; cynoFcgRIIa3; not shown: C-terminal His-tag
T1 chain: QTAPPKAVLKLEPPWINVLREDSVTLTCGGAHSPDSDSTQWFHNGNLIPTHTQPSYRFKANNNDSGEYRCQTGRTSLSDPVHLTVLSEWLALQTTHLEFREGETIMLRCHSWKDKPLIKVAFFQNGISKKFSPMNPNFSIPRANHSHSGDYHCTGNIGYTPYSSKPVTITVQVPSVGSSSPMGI
Description: SPR (BIACORE), captured antibody, FcgR as analyte. Background: In SPR one partner is held on a chip, and binding of the other changes the refractive index at the surface.

For assay [2], the target named is T2, human FcγRIIb extracellular domain, His-tagged (human, UniProt P31994 43-217).
T2 construct: also called FcgRIIb (human); not shown: C-terminal His-tag
T2 sequence: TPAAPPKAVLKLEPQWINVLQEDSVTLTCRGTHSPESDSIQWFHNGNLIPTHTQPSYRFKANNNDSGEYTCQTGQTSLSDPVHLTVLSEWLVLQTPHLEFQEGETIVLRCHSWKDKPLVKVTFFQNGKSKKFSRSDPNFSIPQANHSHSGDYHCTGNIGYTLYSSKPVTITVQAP
Description: SPR (BIACORE); KD of SG1 divided by KD of variant.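 Also: relative to parent M103205H795-SG1 carrying the SG1 human heavy chain constant region.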 As to the method: (§1) The kinetic analysis of interactions between these antibodies and FcγR was carried out using BIACORE® T200 or BIACORE® 4000 (GE Healthcare). HBS-EP+ (GE Healthcare) was used as the running buffer, and the measurement temperature was set to 25° C. A chip produced by immobilizing Protein A. Protein A/G or mouse anti-human IgG kappa light chain (BD Biosciences) onto a Series S Sensor Chip CM4 or CM5 (GE Healthcare) by the amine-coupling method was used. […] After the measurement, the antibody captured on the chip was washed off by allowing reaction with 10 mM glycine-HCl, pH1.5 and 25 mM NaOH so that the chip was regenerated and used repeatedly. The sensorgrams obtained as measurement results were analyzed by the 1:1 Langmuir binding model using the BIACORE® Evaluation Software to calculate the binding rate constant ka (L/mol/s) and dissociation rate constant kd (l/s), and the dissociation constant KD (mol/L) was calculated from these values. […] Regarding such interactions, KD values were calculated using the following 1:1 binding model described in BIACORE® T100 Software Handbook BR1006-48 Edition AE.

Assay [3] addresses T1, cynomolgus monkey FcγRIIa3 …. The assay can be described thus: SPR (BIACORE); KD of SG1 divided by KD of variant.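 Also: relative to parent M103205H795-SG1 carrying the SG1 human heavy chain constant region.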 The protocol: as §1
The target of assay [4] is T3, cynomolgus monkey FcγRIIb extracellular domain, His-tagged (cynomolgus monkey).
T3 construct: also called cyno FcγRIIb; cynoFcγRIIb; not shown: C-terminal His-tag
T3 chain: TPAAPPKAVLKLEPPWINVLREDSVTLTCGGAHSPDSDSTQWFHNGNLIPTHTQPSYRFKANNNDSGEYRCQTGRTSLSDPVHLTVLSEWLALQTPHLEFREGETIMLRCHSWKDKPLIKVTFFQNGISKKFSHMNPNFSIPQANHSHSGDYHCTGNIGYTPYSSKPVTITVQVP
Description: SPR (BIACORE); KD of SG1 divided by KD of variant.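 Also: relative to parent M103205H795-SG1 carrying the SG1 human heavy chain constant region.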 As to the method:
as §1

Assay [5] concerns the target T4, cynomolgus monkey FcγRIIIaS extracellular domain, His-tagged (cynomolgus monkey, UniProt Q8SPW2 21-206 at identity 1.00)).
T4 construct: also called cyno FcγRIIIaS; cynoFcγRIIIaS; not shown: C-terminal His-tag
T4 chain: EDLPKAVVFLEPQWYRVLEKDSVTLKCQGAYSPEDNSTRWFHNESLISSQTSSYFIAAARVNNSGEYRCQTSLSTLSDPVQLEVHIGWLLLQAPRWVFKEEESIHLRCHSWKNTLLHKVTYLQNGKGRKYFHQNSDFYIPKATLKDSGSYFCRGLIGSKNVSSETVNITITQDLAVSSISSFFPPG
The assay can be described thus: SPR (BIACORE); KD of SG1 divided by KD of variant.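 Also: relative to parent M103205H795-SG1 carrying the SG1 human heavy chain constant region.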 The protocol:
as §1

The target of assay [6] is T5, cynomolgus monkey FcγRIIa2 extracellular domain, His-tagged (cynomolgus monkey).
T5 construct: also called cyno FcγRIIa2; cynoFcgRIIa2; not shown: C-terminal His-tag
T5 chain: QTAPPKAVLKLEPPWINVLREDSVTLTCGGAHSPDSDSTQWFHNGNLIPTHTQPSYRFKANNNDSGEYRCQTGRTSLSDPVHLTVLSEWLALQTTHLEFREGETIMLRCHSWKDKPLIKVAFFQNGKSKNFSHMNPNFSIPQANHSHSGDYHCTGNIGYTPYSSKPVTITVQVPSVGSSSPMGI
Description: SPR (BIACORE); KD of SG1 divided by KD of variant. As to the method: as §1

In assay [7] the target is T6, human FcγRIIaH extracellular domain, His-tagged (human, UniProt P12318 34-217).
T6 construct: also called human FcγRIIa (type H); FcgRIIaH; not shown: C-terminal His-tag
T6 sequence: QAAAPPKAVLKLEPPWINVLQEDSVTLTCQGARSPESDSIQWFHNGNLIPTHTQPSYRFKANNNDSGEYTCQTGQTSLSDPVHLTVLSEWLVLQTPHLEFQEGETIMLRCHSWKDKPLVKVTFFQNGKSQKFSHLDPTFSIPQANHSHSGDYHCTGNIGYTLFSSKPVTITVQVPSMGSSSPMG
The assay can be described thus: SPR (BIACORE); KD of SG1 divided by KD of variant. As to the method: as §1

Assay [8] has as its target T7, cynomolgus monkey FcγRIIa1 extracellular domain, His-tagged (cynomolgus monkey).
T7 construct: also called cyno FcγRIIa1; cynoFcgRIIa1; not shown: C-terminal His-tag
T7 chain: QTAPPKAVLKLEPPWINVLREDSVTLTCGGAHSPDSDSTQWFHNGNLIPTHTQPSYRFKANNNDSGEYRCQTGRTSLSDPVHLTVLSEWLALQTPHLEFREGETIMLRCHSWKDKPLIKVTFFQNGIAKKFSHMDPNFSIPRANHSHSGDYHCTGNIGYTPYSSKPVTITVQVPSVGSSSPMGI
Description: SPR (BIACORE); KD of SG1 divided by KD of variant. As to the method: as §1

Assay [9] deals with T8, human FcγRIIIaV extracellular domain, His-tagged (human, UniProt P08637 17-208).
T8 construct: also called FcgRIIIaV; not shown: C-terminal His-tag
T8 sequence (P08637 17-208 F176V): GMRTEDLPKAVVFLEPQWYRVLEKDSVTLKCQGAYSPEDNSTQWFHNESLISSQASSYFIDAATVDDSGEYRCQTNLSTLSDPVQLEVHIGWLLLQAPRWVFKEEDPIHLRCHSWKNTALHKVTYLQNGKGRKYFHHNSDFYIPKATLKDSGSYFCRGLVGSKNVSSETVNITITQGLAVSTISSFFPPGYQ
Description: SPR (BIACORE); KD of SG1 divided by KD of variant. The protocol: as §1

B1: M103205H795-MY448/M103202L889-SK1 (antibody, human IgG1, kappa)
heavy: QVTLKESGPVLVKPTETLTLTCTVSGIDLSHDDISWVRQAPGKGLEWVGIISYAGSTYYASWAKGRLTISKDTSKNQVVLTMTNMDPVDTATYYCARGVPAYSHGGDLWGQGTLVTVSSASTKGPSVFPLAPSSKSTSGGTAALGCLVKDYFPEPVTVSWNSGALTSGVHTFPAVLQSSGLYSLSSVVTVPSSSLGTQTYICNVNHKPSNTKVDKKVEPKSCDKTHTCPPCPAKELLTGPSVFLFPPKPKDTLMISRTPEVTCVVVDVSDEDPEVKFNWYVDGVEVHNAKTKPREEQYNSTYRVVSVLTVLHQDWLNGKEYKCKVSNKALPKPIEKTISKAKGQPREPQVYTLPPSREEMTKNQVSLTCLVKGFYPSDIAVEWESNGQPENNYKTTPPVLDSDGSFFLYSKLTVDKSRWQQGNVFSCSVMHEALHNHYTQKSLSLSP
light: DIVMTQSPATLSLSPGERATLSCTSSQSVYHANWLSWFQQKPGQPPKLLIYWASTLAYGVPSRFSGSGSGTDFTLTISSLQPEDAATYYCAGGYGGGRYAFGQGTKVEIKRTVAAPSVFIFPPSDEQLKSGTASVVCLLNNFYPREAKVQWKVDNALQSGNSQESVTEQDSKDSTYSLSSTLTLSKADYEKHKVYACEVTHQGLSSPVTKSFNRGEC
notes: copies: 2 + 2
Molecule B1 came in with a Kd in assay [1] of 21 µM. For the same molecule, the “KD fold (SG1 = 1)” value in assay [2] is 0.5 fold; in assay [3], 0.8 fold; in [4], 0.6 fold; in assay [5], 0.1 fold; in assay [6], 0.7 fold; in assay [7], 0.7 fold. Besides, the results for the “KD fold (SG1 = 1)” value in [8] and in assay [9] were 0.3 fold and 0.1 fold, respectively.

B2: M103205H795-MY460/M103202L889-SK1 (antibody, human IgG1, kappa)
heavy: QVTLKESGPVLVKPTETLTLTCTVSGIDLSHDDISWVRQAPGKGLEWVGIISYAGSTYYASWAKGRLTISKDTSKNQVVLTMTNMDPVDTATYYCARGVPAYSHGGDLWGQGTLVTVSSASTKGPSVFPLAPSSKSTSGGTAALGCLVKDYFPEPVTVSWNSGALTSGVHTFPAVLQSSGLYSLSSVVTVPSSSLGTQTYICNVNHKPSNTKVDKKVEPKSCDKTHTCPPCPEPELLTGPSVFLFPPKPKDTLMISRTPEVTCVVVDVSDEDPEVKFNWYVDGVEVHNAKTKPREEQYNSTYRVVSVLTVLHQDWLNGKEYKCKVSNKALPKPIEKTISKAKGQPREPQVYTLPPSREEMTKNQVSLTCLVKGFYPSDIAVEWESNGQPENNYKTTPPVLDSDGSFFLYSKLTVDKSRWQQGNVFSCSVMHEALHNHYTQKSLSLSP
light: DIVMTQSPATLSLSPGERATLSCTSSQSVYHANWLSWFQQKPGQPPKLLIYWASTLAYGVPSRFSGSGSGTDFTLTISSLQPEDAATYYCAGGYGGGRYAFGQGTKVEIKRTVAAPSVFIFPPSDEQLKSGTASVVCLLNNFYPREAKVQWKVDNALQSGNSQESVTEQDSKDSTYSLSSTLTLSKADYEKHKVYACEVTHQGLSSPVTKSFNRGEC
notes: copies: 2 + 2
Consider B2, for which binding in [1] was put at a Kd of 5.5 µM. The “KD fold (SG1 = 1)” value worked out at 1.9 fold in [2]; 3.1 fold in assay [3]; 2.3 fold in [4]; 0.1 fold in [5]; 1.6 fold in [6]; 2.7 fold in [7]. The “KD fold (SG1 = 1)” value in assay [8] came to 1 fold; in [9] it was 0.1 fold.

B3: M103205H795-MY459/M103202L889-SK1 (antibody, human IgG1, kappa)
heavy: QVTLKESGPVLVKPTETLTLTCTVSGIDLSHDDISWVRQAPGKGLEWVGIISYAGSTYYASWAKGRLTISKDTSKNQVVLTMTNMDPVDTATYYCARGVPAYSHGGDLWGQGTLVTVSSASTKGPSVFPLAPSSKSTSGGTAALGCLVKDYFPEPVTVSWNSGALTSGVHTFPAVLQSSGLYSLSSVVTVPSSSLGTQTYICNVNHKPSNTKVDKKVEPKSCDKTHTCPPCPDPELLTGPSVFLFPPKPKDTLMISRTPEVTCVVVDVSDEDPEVKFNWYVDGVEVHNAKTKPREEQYNSTYRVVSVLTVLHQDWLNGKEYKCKVSNKALPKPIEKTISKAKGQPREPQVYTLPPSREEMTKNQVSLTCLVKGFYPSDIAVEWESNGQPENNYKTTPPVLDSDGSFFLYSKLTVDKSRWQQGNVFSCSVMHEALHNHYTQKSLSLSP
light: DIVMTQSPATLSLSPGERATLSCTSSQSVYHANWLSWFQQKPGQPPKLLIYWASTLAYGVPSRFSGSGSGTDFTLTISSLQPEDAATYYCAGGYGGGRYAFGQGTKVEIKRTVAAPSVFIFPPSDEQLKSGTASVVCLLNNFYPREAKVQWKVDNALQSGNSQESVTEQDSKDSTYSLSSTLTLSKADYEKHKVYACEVTHQGLSSPVTKSFNRGEC
notes: copies: 2 + 2
For B3, the Kd in assay [1] stood at 7.5 µM. For the same molecule, the “KD fold (SG1 = 1)” value came out at 1.8 fold in assay [2]; 2.3 fold in [3]; 1.6 fold in assay [4]; 0.1 fold in assay [5]; 1.1 fold in assay [6]; 1.8 fold in assay [7]. For the same molecule, the “KD fold (SG1 = 1)” value was determined as 0.6 fold in assay [8] and 0.1 fold in assay [9].

B4: M103205H795-MY461/M103202L889-SK1 (antibody, human IgG1, kappa)
heavy: QVTLKESGPVLVKPTETLTLTCTVSGIDLSHDDISWVRQAPGKGLEWVGIISYAGSTYYASWAKGRLTISKDTSKNQVVLTMTNMDPVDTATYYCARGVPAYSHGGDLWGQGTLVTVSSASTKGPSVFPLAPSSKSTSGGTAALGCLVKDYFPEPVTVSWNSGALTSGVHTFPAVLQSSGLYSLSSVVTVPSSSLGTQTYICNVNHKPSNTKVDKKVEPKSCDKTHTCPPCPFPELLTGPSVFLFPPKPKDTLMISRTPEVTCVVVDVSDEDPEVKFNWYVDGVEVHNAKTKPREEQYNSTYRVVSVLTVLHQDWLNGKEYKCKVSNKALPKPIEKTISKAKGQPREPQVYTLPPSREEMTKNQVSLTCLVKGFYPSDIAVEWESNGQPENNYKTTPPVLDSDGSFFLYSKLTVDKSRWQQGNVFSCSVMHEALHNHYTQKSLSLSP
light: DIVMTQSPATLSLSPGERATLSCTSSQSVYHANWLSWFQQKPGQPPKLLIYWASTLAYGVPSRFSGSGSGTDFTLTISSLQPEDAATYYCAGGYGGGRYAFGQGTKVEIKRTVAAPSVFIFPPSDEQLKSGTASVVCLLNNFYPREAKVQWKVDNALQSGNSQESVTEQDSKDSTYSLSSTLTLSKADYEKHKVYACEVTHQGLSSPVTKSFNRGEC
notes: copies: 2 + 2
As for B4, in [1], the affinity, expressed as Kd, was 3.3 µM. For the same molecule, the “KD fold (SG1 = 1)” value in assay [2] was determined as 2.7 fold; in [3], 4.9 fold; in [4], 3.8 fold; in assay [5], 0.2 fold; in [6] it was 2.5 fold; in assay [7], 3.8 fold. Also, the “KD fold (SG1 = 1)” value in [8] was 1.8 fold; in [9], 0.3 fold.

These data come from US20200317768A1 (published 2020).
